Test results as given in publication PMC7605441.

Key:
[1] = molecular target: RAD51 (UniProt Q08297); test: co-IP of RAD51AP1-mCherry, RAD51-GFP blotted; conditions: reference: wild type, asynchronous cells; sites T305
[2] = molecular target: RAD51 (UniProt Q08297); test: co-IP of RAD51-GFP, RAD51AP1-mCherry blotted; conditions: reference: wild type, asynchronous cells; sites T305

## RAD51AP1 (from UniProt Q8C551) T305A
[1]
  other: percent reduction vs wild type: 90%
[2]
  other: percent reduction vs wild type: 62%
